Results reported in patent publication US8236512B1, “Methods of developing terpene synthase variants” (Amyris, Inc., priority 2011, dated 2012).

Assays:
[1] = test system: CC(C)=CCC/C(C)=C/CC/C(C)=C/CO[P@@](=O)(O)OP(=O)(O)O; assay: cells, lysate or membranes named; conditions: other: purified enzyme, steady-state; 20.0 °C
[2] = test system: CC(C)=CCC/C(C)=C/CC/C(C)=C/CO[P@@](=O)(O)OP(=O)(O)O; assay: Steady-state kinetics of purified farnesene synthase variant FS_B_5.3; assay type: biochemical, Artemisia annua; conditions: other: purified enzyme, 20.0 °C

Chain of Artemisia annua β-farnesene synthase, wild type, SEQ ID NO: 111 (FS_Aa_Ec coding sequence, SEQ ID NO: 62) (Artemisia annua) (chain, as listed by the source): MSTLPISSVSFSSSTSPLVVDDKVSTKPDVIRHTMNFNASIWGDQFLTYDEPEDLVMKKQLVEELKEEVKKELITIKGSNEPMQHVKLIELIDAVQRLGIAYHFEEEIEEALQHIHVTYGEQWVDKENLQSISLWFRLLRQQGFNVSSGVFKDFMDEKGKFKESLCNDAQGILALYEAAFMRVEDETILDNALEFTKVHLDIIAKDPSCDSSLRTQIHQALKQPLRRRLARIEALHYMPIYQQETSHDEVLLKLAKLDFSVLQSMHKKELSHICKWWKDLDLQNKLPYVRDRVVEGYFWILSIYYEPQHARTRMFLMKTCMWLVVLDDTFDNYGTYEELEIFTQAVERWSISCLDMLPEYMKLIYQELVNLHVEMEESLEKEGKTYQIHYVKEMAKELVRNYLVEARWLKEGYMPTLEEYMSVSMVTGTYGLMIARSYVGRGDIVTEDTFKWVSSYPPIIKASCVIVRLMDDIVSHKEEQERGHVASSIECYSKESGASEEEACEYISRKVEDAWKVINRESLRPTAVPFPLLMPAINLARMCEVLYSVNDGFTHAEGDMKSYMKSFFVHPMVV

Substance | Km [1] | kcat [1] | Km [2] | kcat [2]
Artemisia annua β-farnesene synthase, wild type, SEQ ID NO: 111 (FS_Aa_Ec coding sequence, SEQ ID NO: 62) (Artemisia annua) | 0.58 ± 0.19 µM | 0.071 s⁻¹ | – | –
Artemisia annua β-farnesene synthase (SEQ ID NO: 111) variant FS_B_5.3 F11S/V24D/M35T/T196S/Y288F/T319S/I434T/T446N/I460V/V467I (FS_B_5.3_Ec; parent coding sequence FS_B, SEQ ID NO: 119) (Artemisia annua; F11S/I437T/I463V/M35T/T196S/T319S/T449N/V24D/V470I/Y288F) | – | – | 1.18 ± 0.44 µM | 0.093 ± 0.009 s⁻¹
